Experimental data as given in patent US6713294B1, “DNA glycosylases and their use” (priority 1996, dated 2004).

How the values were obtained:
[1] = system: ^3H-uracil released in uracil-DNA glycosylase assays; experiment: Uracil-DNA glycosylase activity after coupled transcription/translation in rabbit reticulocyte lysates; format: biochemical
Description: In vitro transcription/translation was performed with the TNT® transcription/translation system with […] as recommended by the manufacturer, using 200 ng of the expression constructs per 10 μl reaction volume. The mouse UNG1-pBluescript® construct was transcribed from the T3 promoter in the pBluescript® vector. The insert of mouse UNG2-pBluescript® was amplified by the polymerase chain reaction using Dynazyme® PCR kit, ligated into the pGEM-T vector and transcribed from the T7 promoter. […] Human UNG1 CDNA was transcribed from the T7 promoter as previously described (Slupphaug et al., 1995, Biochemistry, 34, p128-138). The samples were run on a 12% denaturing sodium dodecyl sulfate polyacrylamide gel (SDS-PAGE). The gel was dried, autoradiographed overnight and scanned on an LKB Ultroscan XL Enhanced Laser Densitometer. Uracil-DNA glycosylase activity was measured in parallel samples of the in vitro transcription/translation assay mixture containing unlabelled amino acids (Slupphaug et al., 1995, supra). A construct containing both promoters (pGL2-ProAB) linked to the luciferase gene was prepared by insertion of a PvuII/MluI fragment (the enzymes cleave in positions 418 and 1035, respectively) from the promoter region of the UNG gene into the SmaI-MluI sites of pGL2-ProB. […]

3-methyladenine = details: Roy et al. (1994); cited from earlier work
7-methylguanine = details: Roy et al. (1994); cited from earlier work
[2] = system: Escherichia coli DH5α (recA^−); experiment: Cytotoxicity in recA- background; format: cell-based; details: E. coli DH5α, even without induction; data not shown
[3] = system: Escherichia coli recA^+ host cells (NR8051 and NR8052); experiment: Survival of E. coli host cells expressing CDG or TDG; format: cell-based; details: for Survival of host cells after induction by IPTG: both NR8051 and NR8052, within 5 hrs; for Survival of recA^+ host cells carrying uninduced plasmid: data not shown
[^3H]dUMP-labelled DNA [4] = Release of uracil from ds or ss [3H]dUMP-labelled DNA; format: biochemical; details: for U-ds, pmol excised per min per mg protein: double-stranded uracil DNA, 0 = below detection limit (10 pmol per mg protein per min); for U-ds, pmol excised per min per mg protein / U-ss, pmol excised per min per mg protein: 2 μM, 10 min, 37° C.; for U-ss, pmol excised per min per mg protein: single-stranded uracil DNA, 0 = below detection limit
Description: (§1) To test enzymatic substrate specificities, 250 ng purified human “wild type” UDG (UNGΔ84), UNGΔ84Tyr147Ala or UNGΔ84Asn204Asp, were mixed with 200 ng ds- or ss-[^3H]cytosine-labelled DNA (150 mCi/mmol), or ds- or ss-[^3H]thymine-labelled DNA (100 mCi/mmol) in 10 mM NaCl, 20 mM Tris-HCl (pH 7.5), 1 mM EDTA, 1 mM dithiothreitol and 0.5 mg/ml bovine serum albumin (final concentrations) in 20 μl separate reactions. The final concentrations of the [^3H]cytosine-DNA (C) and [^3H]thymine-DNA (T) substrates were 6.5 μM and 10 μM, respectively. Release of radioactivity as a function of time was measured at 37° C. These conditions are later referred to as standard conditions. Substrate synthesis and processing of samples for scintillation counting were as described in Krokan and Wittwer (1981) Nucl. Acids Res., 9: 2599-2613. Single-stranded substrate was generated by boiling double-stranded substrate for 10 min, followed by rapid cooling on ice.
(§2) For measuring release of uracil from double-stranded (U-ds) or single-stranded (U-ss) DNA the various mutant enzymes (prepared as described in Example 1 and by analogous site-directed mutagenesis methods and identical expression and purification methods) were incubated with 200 ng ds- or ss-[^3H]dUMP-labelled DNA (500 mCi/mmol, 2 μM final concentration) in 20 μl separate reactions for 10 min under standard conditions as described in Example 1. For measuring release of [^3H]cytosine or [^3H]thymine, assays were performed as described in Example 1 using an incubation time of 10 min. Uracil inhibition was analysed by adding 5 mM uracil (final concentration) to a standard U-ds assay. 0 activity indicates activity below detection limit (10 pmol per mg protein per min) with 100 ng enzyme and 200 ng DNA substrate at standard conditions.

[5] = system: [^3H]cytosine-labelled DNA; experiment: Release of [3H]cytosine from ds or ss labelled DNA; format: biochemical; details: for C-ds, pmol excised per min per mg protein: double-stranded cytosine DNA
Description: as §1, §2

[^3H]dUMP-labelled DNA [6] = Kinetic parameters on uracil substrate; format: biochemical; details: for Kcat: calculated from Vmax assuming Mr=25000
Description: The final concentrations of the [^3H]cytosine-DNA (C) and [^3H]thymine-DNA (T) substrates were 6.5 μM and 10 μM, respectively. Release of radioactivity as a function of time was measured at 37° C. These conditions are later referred to as standard conditions. Substrate synthesis and processing of samples for scintillation counting were as described in Krokan and Wittwer (1981) Nucl. Acids Res., 9: 2599-2613. Single-stranded substrate was generated by boiling double-stranded substrate for 10 min, followed by rapid cooling on ice.
(§3) The kinetic parameters were determined using six different substrate concentrations to obtain the Km and Vmax values. Duplicate samples were incubated for 20 min using standard assay buffer conditions and substrates as specified. Km and Vmax were calculated using the computer program Enzpack, version 3.0 after the method of Wilkinson (1961) Biochem. J., 80: 324-332.

[^3H]dUMP-labelled DNA [7] = Uracil inhibition in standard U-ds assay; format: biochemical; details: 5 mM uracil added to standard U-ds assay
Description: as §2

[8] = system: [^3H]thymine-labelled DNA; experiment: Release of [3H]thymine from ds or ss labelled DNA; format: biochemical; details: for T-ds, pmol excised per min per mg protein: double-stranded thymine DNA; for T-ds, pmol excised per min per mg protein / T-ss, pmol excised per min per mg protein: 10 μM, 10 min, 0 = below detection limit; for T-ss, pmol excised per min per mg protein: single-stranded thymine DNA
Description: as §1, §2

[9] = system: E. coli ung^+ strain (NR8051); experiment: Frequency of rifampicin resistant mutations, ung+ strain; format: cell-based
Description: An overnight culture of E. coli strains NR8051 and NR8052 (both recA^+, provided by Tomas Kunkel of National Institute of Environmental Health, USA) containing plasmids pTrc99A, pTUNGΔ84, UNGΔ84Tyr147Ala and UNGΔ84Asn204Asp were prepared as described in Example 1 and grown in LB-medium with ampicillin (100 μg/ml) at 30° C. The culture was then diluted 1:20 in fresh medium and cultured for 5 hours at 37° C. Induced culture contained 1 mM IPTG in the LB-medium. To determine the number of rifampicin resistant bacteria, 100 μl of the culture were mixed with 3 ml top agarose and poured on LB plates containing 100 μg/ml rifampicin and incubated overnight at 37° C. Colonies were counted and the number of rifampicin resistant colonies per 10^8 viable cells was calculated.

[10] = system: [^3H]cytosine-labelled DNA; experiment: Kinetic parameters on cytosine substrate; format: biochemical; details: for Kcat: calculated from Vmax assuming Mr=25000
Description: as §1, §3

[11] = system: [^3H]thymine-labelled DNA; experiment: Kinetic parameters on thymine substrate; format: biochemical; details: for Kcat: calculated from Vmax assuming Mr=25000
Description: as §1, §3

3-methyladenine-DNA = details: Bjelland et al. (1994); cited from earlier work
[12] = 6.5 μM, 10 min, 0 = below detection limit

## mouse UNG2: mouse homolog of human UNG2
[1]; after subtraction of background of 123 dpm
  dpm (^3H-uracil released): 856 dpm
[1]; translation in rabbit reticulocyte lysates
  Activity (dpm/area), relative specific activity: 16784 dpm/area

B1: N-methylpurine-DNA glycosylase: recombinant N-methylpurine-DNA glycosylase from mouse (protein, UniProt Q04841 1-333, looked up)
DNA-3-methyladenine …: MPARGGSARPGRGALKPVSVTLLPDTEQPPFLGRARRPGNARAGSLVTGYHEVGQMPAPLSRKIGQKKQRLADSEQQQTPKERLLSTPGLRRSIYFSSPEDHSGRLGPEFFDQPAVTLARAFLGQVLVRRLADGTELRGRIVETEAYLGPEDEAAHSRGGRQTPRNRGMFMKPGTLYVYLIYGMYFCLNVSSQGAGACVLLRALEPLEGLETMRQLRNSLRKSTVGRSLKDRELCSGPSKLCQALAIDKSFDQRDLAQDDAVWLEHGPLESSSPAVVVAAARIGIGHAGEWTQKPLRFYVQGSPWVSVVDRVAEQMDQPQQTACSEGLLIVQK
3-methyladenine
  Kcat for excision of 3-methyladenine: 0.013 s⁻¹
7-methylguanine
  Kcat for excision of 7-methylguanine: 0.00333 s⁻¹

B2: Asn204Asp: human UDG mutant, codon 204 Asn changed to Asp; cytosine-DNA glycosylase (CDG) (protein)
chain: MGVFCLGPWGLGRKLRTPGKGPLQLLSRLCGDHLQAIPAKKAPAGQEEPGTPPSSPLSAEQLDRIQRNKAAALLRLAARNVPVGFGESWKKHLSGEFGKPYFIKLMGFVAEERKHYTVYPPPHQVFTWTQMCDIKDVKVVILGQDPYHGPNQAHGLCFSVQRPVPPPPSLENIYKELSTDIEDFVHPGHGDLSGWAKQGVLLLDAVLTVRAHQANSHKERGWEQFTDAVVSWLNQNSNGLVFLLWGSYAQKKGSAIDRKRHHVLQTAHPSPLSVYRGFFGCRHFSKTNELLQKSGKKPIDWKEL
[2]
  Cytotoxicity in recA^− background: highly cytotoxic
[3]
  Survival of host cells after induction by IPTG: less than 50%
  Survival of recA^+ host cells carrying uninduced plasmid: equal to that of the parental cell carrying plasmid pTrc99A
[^3H]dUMP-labelled DNA [4]
  U-ds, pmol excised per min per mg protein: 1.7 × 10^4 pmol excised per min per mg protein
  U-ss, pmol excised per min per mg protein: 1.6 × 10^5 pmol excised per min per mg protein
[^3H]dUMP-labelled DNA [4]; uracil release, ds and ss
  UDG activity remaining compared with wild type: 0.04-0.16%
[5]; [12]
  C-ds, pmol excised per min per mg protein: 3.0 × 10^2 pmol excised per min per mg protein
[5]; ss versus ds substrate
  Preference for single stranded substrate: 10 fold
[^3H]dUMP-labelled DNA [6]; U-ds substrate
  Km: 2.4 µM
  Kcat: 0.02 s⁻¹
[^3H]dUMP-labelled DNA [6]; U-ss substrate
  Km: 2 µM
  Kcat: 0.25 s⁻¹
[^3H]dUMP-labelled DNA [7]
  Inhibition 5 mM Uracil: 0%
[8]
  T-ds, pmol excised per min per mg protein: 0 pmol excised per min per mg protein
  T-ss, pmol excised per min per mg protein: 0 pmol excised per min per mg protein
[9]; E. coli ung^+ cells, uninduced
  Factor of increase of mutation frequency compared to host cells carrying parental plasmid pTrc99A: 8.6
[9]; induced ung^+ cells
  Factor of increase of mutation frequency compared to host cells carrying parental plasmid pTrc99A: approximately 8.9
[10]; C-ds substrate
  Km: 35 µM
  Kcat: 0.002 s⁻¹
[10]; C-ss substrate
  Km: 5.3 µM
  Kcat: 0.0065 s⁻¹

B3: Tyr147Ala (protein)
chain: MGVFCLGPWGLGRKLRTPGKGPLQLLSRLCGDHLQAIPAKKAPAGQEEPGTPPSSPLSAEQLDRIQRNKAAALLRLAARNVPVGFGESWKKHLSGEFGKPYFIKLMGFVAEERKHYTVYPPPHQVFTWTQMCDIKDVKVVILGQDPAHGPNQAHGLCFSVQRPVPPPPSLENIYKELSTDIEDFVHPGHGDLSGWAKQGVLLLNAVLTVRAHQANSHKERGWEQFTDAVVSWLNQNSNGLVFLLWGSYAQKKGSAIDRKRHHVLQTAHPSPLSVYRGFFGCRHFSKTNELLQKSGKKPIDWKEL
[2]
  Cytotoxicity in recA^− background: highly cytotoxic
[3]
  Survival of host cells after induction by IPTG: < 10%
  Survival of recA^+ host cells carrying uninduced plasmid: equal to that of the parental cell carrying plasmid pTrc99A
[^3H]dUMP-labelled DNA [4]
  U-ds, pmol excised per min per mg protein: 2.2 × 10^4 pmol excised per min per mg protein
  U-ss, pmol excised per min per mg protein: 2.2 × 10^4 pmol excised per min per mg protein
[11]; T-ds substrate
  Km: 6 µM
  Kcat: 0.001 s⁻¹
[11]; T-ss substrate
  Km: 1.4 µM
  Kcat: 0.00033 s⁻¹
[5]; [12]
  C-ds, pmol excised per min per mg protein: 0 pmol excised per min per mg protein
[5]; single-stranded cytosine DNA, 6.5 μM, 10 min, 0 = below detection limit
  C-ss, pmol excised per min per mg protein: 0 pmol excised per min per mg protein
[^3H]dUMP-labelled DNA [6]; U-ds substrate
  Km: 3.5 µM
  Kcat: 0.0167 s⁻¹
[^3H]dUMP-labelled DNA [6]; U-ss substrate
  Km: 0.3 µM
  Kcat: 0.01 s⁻¹
[^3H]dUMP-labelled DNA [7]
  Inhibition 5 mM Uracil: 0%
[8]
  T-ds, pmol excised per min per mg protein: 1.3 × 10^3 pmol excised per min per mg protein
  T-ss, pmol excised per min per mg protein: 7.5 × 10^2 pmol excised per min per mg protein
[8]; ss versus ds substrate
  Preference for single stranded substrate: decreased preference
[9]; E. coli ung^+ cells, uninduced
  Factor of increase of mutation frequency compared to host cells carrying parental plasmid pTrc99A: 39
[9]; Escherichia coli
  Mutation frequency in vivo relative to CDG activity: 10 fold
[9]; induced ung^+ cells
  Factor of increase of mutation frequency compared to host cells carrying parental plasmid pTrc99A: ~94.4

B4: AlkA: Escherichia coli inducible 3-methyladenine-DNA glycosylase II (protein, UniProt P04395 1-282, looked up)
DNA-3-methyladenine …: MYTLNWQPPYDWSWMLGFLAARAVSSVETVADSYYARSLAVGEYRGVVTAIPDIARHTLHINLSAGLEPVAAECLAKMSRLFDLQCNPQIVNGALGRLGAARPGLRLPGCVDAFEQGVRAILGQLVSVAMAAKLTARVAQLYGERLDDFPEYICFPTPQRLAAADPQALKALGMPLKRAEALIHLANAALEGTLPMTIPGDVEQAMKTLQTFPGIGRWTANYFALRGWQAKDVFLPDDYLIKQRFPGMTPAQIRRYAERWKPWRSYALLHIWYTEGWQPDEA
3-methyladenine-DNA
  Turnover number on 3-methyladenine-DNA: 0.03 min⁻¹
